First the molecules themselves.
T1: Trx-mMUTYH(D207N) (Mus musculus, UniProt Q99P21 1-515, D207N)
T1 sequence: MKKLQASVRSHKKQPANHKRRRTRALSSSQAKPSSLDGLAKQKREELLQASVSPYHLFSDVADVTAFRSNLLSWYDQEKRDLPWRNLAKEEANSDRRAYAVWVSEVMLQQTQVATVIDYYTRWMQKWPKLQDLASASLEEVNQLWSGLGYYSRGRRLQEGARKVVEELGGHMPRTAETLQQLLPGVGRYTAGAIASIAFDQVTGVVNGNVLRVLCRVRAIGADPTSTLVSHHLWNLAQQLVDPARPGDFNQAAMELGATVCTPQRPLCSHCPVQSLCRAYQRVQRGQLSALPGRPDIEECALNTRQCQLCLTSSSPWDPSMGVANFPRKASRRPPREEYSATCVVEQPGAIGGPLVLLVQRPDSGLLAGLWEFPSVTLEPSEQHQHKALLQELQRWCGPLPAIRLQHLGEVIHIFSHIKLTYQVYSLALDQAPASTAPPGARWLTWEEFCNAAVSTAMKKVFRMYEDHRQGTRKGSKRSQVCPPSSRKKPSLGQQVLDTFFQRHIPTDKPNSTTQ

T2: Trx-mMUTYH wild type (Mus musculus, UniProt Q99P21 1-515)
T2 sequence: T1 sequence with N207D

B1: *A:GO (dsDNA)
DNA 1: AGCGGCCATCGATACCGTCAACCTCGAGGAATTCC
DNA 2: GGAATTCCTCGAGGTGGACGGTATCGATGGCCGCT
modifications: 8-oxoguanine at strand 2 position 16, opposite A20 of strand 1
B2: *AO:T (dsDNA)
DNA 1: B1 DNA 1
DNA 2: B1 DNA 2 with G16T
modifications: 2-hydroxyadenine at strand 1 position 20, opposite T16 of strand 2
B3: *A:G (dsDNA)
DNA 1: B1 DNA 1
DNA 2: B1 DNA 2
B4: *AO:G (dsDNA)
DNA 1: B1 DNA 1
DNA 2: B1 DNA 2
modifications: 2-hydroxyadenine at strand 1 position 20, opposite G16 of strand 2
B5: *AO:GO (dsDNA)
DNA 1: B1 DNA 1
DNA 2: B1 DNA 2
modifications: 2-hydroxyadenine at strand 1 position 20; 8-oxoguanine at strand 2 position 16

Data on five molecules can be found in paper PMC548358.

Positions count from the first letter of the chain named.

In the first data set the target is T1, Trx-mMUTYH(D207N). Nature of the data set: EMSA.
On to B1, for which the binding result is “binds”.

In the case of B2, the binding result is “no binding”.

As for B3, the binding result was “no binding”.

As for B4, the binding result is recorded as “no binding”.

The next data set has as its target T2, Trx-mMUTYH wild type. Nature of the data set: EMSA. A general note: A gel shift assay detects complexes by their altered migration in electrophoresis.
For the molecule B1, the binding result was “binds”.

As to B2, the binding result was “no binding”.

Take B5: the binding result is “binds”.

For B3, the binding result is “no binding”.

Take B4: the binding result was “no binding”.
